# Measurements reported in publication PMC8194188, “Kinetic modeling of phosphorylase-catalyzed iterative β-1,4-glycosylation for degree of polymerization-controlled synthesis of soluble cello-oligosaccharides” (Biotechnology for Biofuels, 2021).
# B1: CcCdP (cellodextrin phosphorylase from Clostridium cellulosi) ([Clostridium] cellulosi) (protein)
# chain: MITKVTPRSCKLTPFEILKQKFGSIIAMSGCADAIYSDSSCKNVIGITGLPIKAPVIQVLLENSKLAAFLNEYVQNKSVCLALEGMRYCLVFEDGQKVKLPQELDDIIQSTVSDVKNWAGTLTENGEHVIDLKKPSPGPHFYVNLLIGNRLGFNRTLQTTPKSVVDRFGRGSFRSHAATQVLATRYDMRQEENGFPANRQFYLYENGKQIFYSGSVDDDNILEAKCIHSCNRTVIKYKTACKLEITRTIFLCPQKKGLPLATEIQIINIKNNSERKRNLSITYTGMFGTAATHAIFEDVTYTNVIMQSAALYNDNGEFIGITPDYYRKKYNEDTRFVTMFVRKDGKRIFPKSFCTDYNDFVGNGTLEHPAGGEHLNNKLNRKGPGFFALGTPFTIMPGQDIEIDTFTGMSSSKDNPNYDDTTMPKELEALLRYFEASDSVQSALREVIDFQEKYCKYIEFKTEDKMFNAGFNKNLAFQILYQTFMSRSFCQTQKGYREIGFREIQDLYASMYYFINLGYQDFVKNLLFEWTSNVYKMGYANHNFYWVGKQPGLYSDDSLWLLQAYYRYIIYTKDTSILNEEVPVADGNNEKRAVRDTLKAIIQYSAFISVGNHGLPLLDLADWNDCLKIDNDYVDGAQKEKLYYKQLKETGGKYGDRFMSDYSESVMNAFLLKVAVDDLAEIAELDKDAELEQSMRKISSALSEKIQKYAWKGNFFARVLLNRYKDGSFTYIGAKGDKLSADPNIDGTYFLNSFSWAILSGVATDEQIGIMVDTLKKYMLTPYGIRLTTPADLNKLANDTATDHYFYGDRENGAVFKHASMMATAALAKAAKSVKDKALAKEMARLAYYMIDLVLPYKNLEDPFKLAGNPRICTQYINADSGENIGPLLSGTATWLNLTITSLAGIEYVKDGIMFSPVLREDETRLEYSLKAPGCSYNITITKPRGFARLIDSAYDLRIDGKKTDNCIIPMFTDGKEHSVTLEFK
# notes: N-terminally His-tagged, recombinant, purified
# Substrate: O=P(O)(O)O[C@H]1O[C@H](CO)[C@@H](O)[C@H](O)[C@H]1O
# Test: initial rates from phosphate release, Michaelis-Menten fit
# Format: biochemical, [Clostridium] cellulosi
# Conditions: 100 mM cellobiose (saturating), 50 mM MES pH 7.0, 45 °C, synthesis direction
protein,measurement,value
B1,Km,470 ± 240 µM
